The values that follow come from patent US20180066067A1 (Novartis, published 2018).

First the molecules themselves.
B3: RSPO1-GFP (ligand, UniProt Q2MKA7 21-263, looked up)
chain: SRGIKGKRQRRISAEGSQACAKGCELCSEVNGCLKCSPKLFILLERNDIRQVGVCLPSCPPGYFDARNPDMNKCIKCKIEHCEACFSHNFCTKCKEGLYLHKGRCYPACPEGSSAANGTMECSSPAQCEMSEWSPWGPCSKKQQLCGFRRGSEERTRRVLHAPVGDHAACSDTKETRRCTVRRVPCPEGQKRRKGGQGRRENANRNLARKESKEAGAGSRRRKGQQQQQQQGTVGPLTSAGPA
notes: Used as conditioned medium; The order of the parts follows the printed name; also called R-spondin 1 GFP fusion; R-spondin; not shown: GFP

In experiment [1] the target is T1, Fc-ZNRF3 ECD (extracellular domain, amino acids 56-219 of SEQ ID NO: 1) (human, UniProt Q9ULT6 56-219).
T1 construct: The order of the parts follows the printed name 'Fc-ZNRF3 ECD'; also called purified ZNRF3 extracellular domain; not shown: Fc part
T1 sequence: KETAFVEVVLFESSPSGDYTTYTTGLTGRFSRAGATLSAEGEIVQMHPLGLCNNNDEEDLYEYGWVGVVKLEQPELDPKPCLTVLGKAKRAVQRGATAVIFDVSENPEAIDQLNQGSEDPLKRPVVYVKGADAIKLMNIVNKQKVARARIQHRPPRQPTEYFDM
The experiment can be described thus: ELISA on Fc-ZNRF3 ECD. In general terms: In an ELISA, binding on a coated surface is turned into a signal by an enzyme label.

The target of experiment [2] is T2, ZNRF3 ΔRING (missing amino acids 293-334), stably expressed on HEK293 cells (human, UniProt Q9ULT6 56-936).
T2 construct: No tag is stated for the cell line used in FACS; also called ZNRF3 lacking the RING domain
T2 sequence: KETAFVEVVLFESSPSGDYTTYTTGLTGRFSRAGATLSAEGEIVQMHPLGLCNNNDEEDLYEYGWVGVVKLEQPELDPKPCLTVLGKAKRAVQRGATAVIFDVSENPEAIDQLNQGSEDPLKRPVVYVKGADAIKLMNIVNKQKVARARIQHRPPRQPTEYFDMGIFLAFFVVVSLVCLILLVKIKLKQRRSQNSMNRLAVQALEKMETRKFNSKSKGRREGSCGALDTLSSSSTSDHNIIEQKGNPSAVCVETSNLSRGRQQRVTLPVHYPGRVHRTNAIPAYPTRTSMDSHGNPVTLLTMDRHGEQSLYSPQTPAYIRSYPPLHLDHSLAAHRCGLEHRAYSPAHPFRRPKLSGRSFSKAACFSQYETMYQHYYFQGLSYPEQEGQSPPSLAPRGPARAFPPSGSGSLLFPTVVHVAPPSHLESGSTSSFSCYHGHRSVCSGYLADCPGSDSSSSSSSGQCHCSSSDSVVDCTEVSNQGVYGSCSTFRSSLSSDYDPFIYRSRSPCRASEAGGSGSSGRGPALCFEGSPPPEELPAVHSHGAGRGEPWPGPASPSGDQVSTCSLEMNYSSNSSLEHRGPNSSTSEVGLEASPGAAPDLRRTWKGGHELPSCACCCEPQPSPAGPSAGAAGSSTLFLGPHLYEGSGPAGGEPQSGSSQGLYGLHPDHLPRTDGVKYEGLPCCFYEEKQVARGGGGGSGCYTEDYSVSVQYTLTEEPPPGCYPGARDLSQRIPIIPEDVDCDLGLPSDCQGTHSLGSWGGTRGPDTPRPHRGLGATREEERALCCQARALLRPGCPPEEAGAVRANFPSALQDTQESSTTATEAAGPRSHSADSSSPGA
The experiment can be described thus: FACS on HEK293 cells stably expressing ZNRF3 ΔRING.

The target of experiment [3] is T3, N-terminal Myc-tagged FZD4 (Frizzled 4) (UniProt Q9ULV1 37-537, limits assumed).
T3 construct: whole, on cells; On transiently transfected HEK293 cells; not shown: N-terminal Myc tag
T3 sequence (looked up): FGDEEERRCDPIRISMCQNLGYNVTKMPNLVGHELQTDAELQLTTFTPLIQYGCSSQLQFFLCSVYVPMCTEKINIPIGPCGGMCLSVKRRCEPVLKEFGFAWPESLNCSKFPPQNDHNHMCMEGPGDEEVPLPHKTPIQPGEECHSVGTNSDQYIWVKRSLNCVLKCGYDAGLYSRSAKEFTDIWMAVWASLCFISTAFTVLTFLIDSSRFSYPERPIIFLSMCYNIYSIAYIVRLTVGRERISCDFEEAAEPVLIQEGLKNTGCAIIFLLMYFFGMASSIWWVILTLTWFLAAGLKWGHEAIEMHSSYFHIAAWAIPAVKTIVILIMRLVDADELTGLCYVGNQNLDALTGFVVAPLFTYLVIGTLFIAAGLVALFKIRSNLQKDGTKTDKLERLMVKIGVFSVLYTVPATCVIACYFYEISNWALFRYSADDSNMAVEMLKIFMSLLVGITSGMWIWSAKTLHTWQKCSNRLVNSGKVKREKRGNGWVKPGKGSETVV
As to the kind of experiment: cell-based binding assay: RSPO1-GFP conditioned medium for 1 hour on transfected HEK293 cells, immunofluorescence. As for the experimental part: (§1) Since ZNRF3 regulates the membrane level of Frizzled proteins, we tested whether R-spondin enhances Wnt signaling through inhibiting ZNRF3. […] To do so, the inventors transiently transfected HEK293 cells with N-terminal Myc-tagged FZD4 (Frizzled 4), or ZNRF3 ECD-TM, or ZNRF3 P103A ECD-TM, then incubated these cells with RSPO1-GFP conditioned medium for 1 hour. We determined the binding of RSPO1-GFP to Myc tagged proteins expressed on the cell surface using immunoflurorescence using anti-GFP and anti-Myc antibodies.

For experiment [4], the target named is B3. Described as above. As for the experimental part: as §1

B1: Fab clone Ab2 (Fab, V domains shown)
VH: EVQLVESGGGLVKPGGSLRLSCAASGFTFSDYGIHWVRQAPGKGLEWVGRIKSKTDGGITEYAAPVKGRFTISRDDSKNTLYLQMNSLKTEDTAVYYCARAIYYLEAFDVWGQGTLVTVSS
VL: DIELTQPPSVSVSPGQTASITCSGDSLGSYYVHWYQQKPGQAPVLVIYRNKQRPSGIPERFSGSNSGNTATLTISGTQAEDEADYYCQTYDWMYSSRVFGGGTKLTVLG
notes: also called parental Ab2; ZNRF3 hFab
With B1, the binding result in experiment [1] and in experiment [2] was “binds” throughout.

B2: Fab clone Ab1 (Fab, V domains shown)
VH: QVQLVQSGAEVKKPGASVKVSCKASGYTFTSYHMHWVRQAPGQGLEWMGWINPYTGDTNYAQKFQGRVTMTRDTSISTAYMELSRLRSEDTAVYYCAREKVYMDIWGQGTLVTVSS
VL: DIELTQPPSVSVSPGQTASITCSGDSIPSKYAHWYQQKPGQAPVLVIYGKSHRPSGIPERFSGSNSGNTATLTISGTQAEDEADYYCAAWDLLGDGWVFGGGTKLTVLG
notes: Fab from phage display panning on Fc-ZNRF3 ECD; Light chain Lch-lambda3, heavy chain Hch-VH1B; the heavy chain entry carries C-terminal tags; also called ZNRF3 hFab
B2: the binding result in experiment [1] and in experiment [2] was “binds” throughout.

Take B3: in experiment [3], the binding result was “no binding”.

B4: ZNRF3 P103A ECD-TM (receptor, not shown: small tags and cut ends)
chain: KETAFVEVVLFESSPSGDYTTYTTGLTGRFSRAGATLSAEGEIVQMHALGLCNNNDEEDLYEYGWVGVVKLEQPELDPKPCLTVLGKAKRAVQRGATAVIFDVSENPEAIDQLNQGSEDPLKRPVVYVKGADAIKLMNIVNKQKVARARIQHRPPRQPTEYFDMGIFLAFFVVVSLVCLILLVKIKLKQRRSQNSMNRLAV
notes: On transiently transfected HEK293 cells, N-terminally Myc-tagged
B4: the binding result in experiment [4] is recorded as “no binding”.
